{"source": "patent US6995249", "about": "“Nucleic acid capable of binding specifically to Ras target protein” (Japan Science and Technology Corporation)", "binders": {"B1": {"name": "clone 21.01 (ssRNA)", "RNA": "GGGAGAUCAGAAUAAACGCUCAACUGAUCAAUGGCGUACAAUGGAUUCGUUCUCAUAACCAAAACCCUUACCCCUUGGACUGAUUCGACAUGAGGCCCCUGCAGGGCG"}, "B2": {"name": "clone 21.07 (ssRNA)", "RNA": "GGGAGAUCAGAAUAAACGCUCAAUUGACUCAAUGGCGUACAAUGGAUUCGUUCUCAUAACCAAAACCCUUACCCCUUGGACUGUUCGACAUGAGGCCCCUGCAGGGCG"}, "B3": {"name": "RNA aptamer SEQ ID NO:25 (ssRNA)", "RNA": "GGGAGUGGAGGAAUUCAUCGAGGCAUAUGUCGACUCCGUCUUCCUUCAAACCAGUUAUAAAUUGGUUUUAGCAUAUGCCUUAGCGACAGCAAGCUUCUGC"}, "B4": {"name": "RNA aptamer SEQ ID NO:28 (3'-truncated) (ssRNA)", "RNA": "GGGAGUGGAGGAAUUCAUCGAGGCAUAUGUCGACUCCGUCUUCCUUCAAACCAGUUAUAAAUUGGUUUUAGCAUAUGCCU"}, "B5": {"name": "RNA aptamer SEQ ID NO:26 (ssRNA)", "RNA": "GGGAGUGGAGGAAUUCAUCGAGGCAUGACCUCCCGUGGCAGUAGGGGUAAAAAUUAUCUUCCUACACUUCUCAUGCCUUAGCGACAGCAAGCUUCUGC"}, "B6": {"name": "clone 21.06 (ssRNA)", "RNA": "B1 RNA with A83U"}, "B7": {"name": "clone 21.08 (ssRNA)", "RNA": "GGGAGAUCAGAAUAAACGCUCAAUUGAAGAUCGUACAAUGGAUUCGAUCAUAACCCGAAGUUUUUAAACACUCUUUACCUGUAUUCGACAUGAGGCCCCUGCAGGGCG"}, "B8": {"name": "clone 21.02 (ssRNA)", "RNA": "GGGAGAUCAGAAUAAACGCUCAACUGAUCAAUGGCGUACAAUGGAUUCGUUCUCAUAACCAAAACCCUUACCCCUGGACUGAUUCGACAUGAGGCCCCUGCAGGGCG"}, "B9": {"name": "clone 21.03 (ssRNA)", "RNA": "B1 RNA with A83C"}, "B10": {"name": "clone 21.04 (ssRNA)", "RNA": "B1 RNA with U50C, A83C"}, "B11": {"name": "clone 21.05 (ssRNA)", "RNA": "B1 RNA with C72U, A83C"}, "B12": {"name": "clone 21.12 (ssRNA)", "RNA": "GGGAGAUCAGAAUAAACGCUCAAGCGACAAGCAGCAGAUAAAGUUGAGCGCAACGCCGCUACAGAACCAAAUUAACAUGUAUGUUCGACAUGAGGCCCCUGCAGGGCG"}}, "note": "Residue numbers refer to the chain shown, from its start."}
{"molecular_target": "T1, Raf-1 RBD (GST-RBD) (UniProt P04049 P04049:51-131)", "assay": "filter; group 1; value only in figure; PBS + 5 mM MgCl2, 37 C", "details": "tags: GST fusion, expressed in E. coli; label: 32P", "experimental": "The interaction between the 10 RNAs among them and GST-RBD was examined by a binding assay using a nitrocellulose filter.\n(§1) An RNA (4 nM) of which the 5'-terminus was labeled and 50 to 1,250 nM of GST-RBD were incubated in 600 µl of a binding buffer at 37° C. for 30 minutes. The culture was filtered with a nitrocellulose filter, and the radioactivity on the filter was measured. The Kd value was calculated using a software: Kalleider Graph (Bell, S. D., et al., (1998) J. Biol. Chem. 273, 14309–14314)."}
{"binder": "B1", "binding result": "binds"}
{"binder": "B2", "binding result": "binds"}
{"molecular_target": "T1, Raf-1 RBD (GST-RBD)", "assay": "filter; PBS + 5 mM MgCl2, 37 C", "details": "tags: GST fusion, expressed in E. coli; label: 5'-32P", "experimental": "as §1", "units": {"Kd": "nM"}}
{"binder": "B3", "Kd": 124}
{"binder": "B4", "Kd": 176}
{"binder": "B5", "Kd": 295}
{"molecular_target": "T1, Raf-1 RBD (GST-RBD)", "assay": "filter; group 1; percent bound only in figure", "details": "tags: GST fusion, expressed in E. coli; label: 32P"}
{"binder": "B6", "binding result": "binds"}
{"binder": "B7", "binding result": "binds"}
{"binder": "B8", "binding result": "binds"}
{"binder": "B9", "binding result": "binds"}
{"binder": "B10", "binding result": "binds"}
{"binder": "B11", "binding result": "binds"}
{"molecular_target": "T1, Raf-1 RBD (GST-RBD)", "assay": "filter; scarcely bound; no inhibition of Ras binding at 12.5 uM", "details": "tags: GST fusion, expressed in E. coli; label: 32P"}
{"binder": "B12", "binding result": "no binding"}
